This note sets out measurements from US20220184184A1, “GLUCOSE SENSITIVE INSULIN DERIVATIVES” (Novo Nordisk A/S, priority 2019, published 2022).

The nature of assay [1]: Alizarin red (ARS) colorimetric displacement assay, binding of boron compounds to glucose. To be noted: statement in words. The method, then: The alizarin-red binding assay is a colorimetric assay used to determine the inhibition affinity of boronate/boroxole compounds to glucose. The assay is based on a colour shift of alizarin-red upon binding to boronate, which shift can be followed by change in absorbance in the 330-340 nm region. […] After 5 minutes of centrifugation at 4000 rpm, the plate is placed in a multi-well spectrometer (SpectraMax, Molecular Devices) for absorption detection. […] Upon complete dissolution of the compound, 200 μM of Alizarin red (ARS) is added to the solution. The ARS-boronate solution is then aliquoted into a 96 multiwell plate (black, flat and clear bottom) 1:1 with appropriate carbohydrate. […] The plate with ARS-boronate mixed with carbohydrate is incubated 20 minutes at room temperature. After 5 minutes of centrifugation at 4000 rpm the plate is placed in a multiwell spectrometer (SpectraMax, Molecular Devices) for absorption detection.

Assay [2] concerns the target T1, human Insulin Receptor A (hIR-A) (human, UniProt P06213-2 28-1370).
T1 construct: Solubilised semi-purified receptor captured on SPA beads by antibody 83-7
In words: SPA competition vs 125I-insulin, hIR-A, 1.5% HSA, no glucose. As to the method: (§1) BHK cells over-expressing human Insulin Receptor A (hIR-A) were lysed in 50 mM Hepes pH 8.0, 150 mM NaCl, 1% Triton X-100, 2 mM EDTA and 10% glycerol. The cleared cell lysate was batch absorbed with wheat germ agglutinin (WGA)-agarose (Lectin from Triticum vulgaris-Agarose, L1394, Sigma-Aldrich Steinheim, Germany) for 90 minutes. The receptors were washed with 20 volumes 50 mM Hepes pH 8.0, 150 mM NaCl and 0.1% Triton X-100, where after the receptors were eluted with 50 mM Hepes pH 8.0, 150 mM NaCl, 0.1% Triton X-100, 0.5 M n-Acetyl Glucosamine and 10% glycerol. All buffers contained Complete (Roche Diagnostic GmbH, Mannheim, Germany) as described in Andersen et al. 2017 PLos One 12.
(§2) In order to test the glucose sensitivity, the binding experiments were set up in absence or presence of 20 mM glucose. The plates were rocked gently for 22.5 hours at 22° C., centrifuged for 5 minutes at 1000 rpm and counted in TopCounter (Perkin Elmer). Data points were fitted to a four-parameter logistic model, whereby the relative affinity of the analogue compared to human insulin (within the same plate) was determined.

Assay [3] has as its target T1, human Insulin Receptor A (hIR-A). In words: SPA, relative hIR-A affinity at 20 mM vs 0 mM glucose, 1.5% HSA. As to the method: as §1, §2
Assay [4] concerns the target T2, human Insulin Receptor A (hIR-A) (human, UniProt P06213-2 28-1370).
T2 construct: Solubilised, semi-purified receptor
In words: SPA, relative hIR-A affinity at 20 mM over 0 mM glucose. As to the method: as §1, §2

Assay [5] has as its target T3, human Insulin Receptor A (hIR-A) (human, UniProt P06213-2 28-1370).
T3 construct: Solubilized semi-purified receptor captured on SPA beads through antibody 83-7
Kind of assay: SPA, displacement of 125I-insulin from solubilised hIR-A, 1.5% HSA, no glucose; affinity relative to human insulin. The method, then:
as §1, §2
A general note: Displacement assays read how much labelled ligand stays bound in the presence of the test substance.

For assay [6], the target named is T3, human Insulin Receptor A (hIR-A). Kind of assay: SPA, displacement of 125I-insulin from solubilised hIR-A, 1.5% HSA; increase in relative affinity from 0 to 20 mM glucose. As to the method: as §1, §2
For assay [7], the target named is T2, human Insulin Receptor A (hIR-A). Kind of assay: SPA, competition with 125I-insulin on solubilised hIR-A, relative to human insulin. As to the method: as §1, §2

With `O=C(O)c1cc2c(c(C(F)(F)F)c1)COB2O` [Example 42, 1-Hydroxy-4-(trifluoromethyl)-1,3-dihydrobenzo[c][1,2]oxaborole-6-carboxylic acid], in assay [1], the “affinity to glucose compared with the diboron compounds” value was “weaker affinity to glucose”.
For `O=C(O)c1cc(F)c2c(c1)B(O)OC2` [Example 43, 4-fluoro-1-hydroxy-1,3-dihydrobenzo[c][1,2]oxaborole-6-carboxylic acid], the “affinity to glucose compared with the diboron compounds” value in assay [1] is on record as “weaker affinity to glucose”.

B1: Compound of Example 150 (ligand)
chain 1: GIVEQCCTSICSLEQLENYCNK
chain 2: FVNQHLCGSHLVEALYLVCGERGFHYPK
modifications: not fully specified; diboron group from building block of example 18; sites only in drawing
Consider B1, for which, in assay [2], the “HIR affinity relative HI (%), 1.5% HSA” value is 13.3%. In assay [3], the “HIR glucose factor, 20 mM glucose 1.5% HSA” value was found to be 1.3 fold.

B2: compound of Example 271: A14E A22K B25H desB27 desB30 human insulin conjugated with building block of example 22 (ligand)
chain 1: GIVEQCCTSICSLEQLENYCNK
chain 2: FVNQHLCGSHLVEALYLVCGERGFHYPK
modifications: not fully specified; diboron group(s) of example 22, sites only in drawing
notes: number and sites of diboron groups only in drawing
On to B2, for which the “HIR glucose factor, 20 mM glucose 1.5% HSA” value in assay [4] was 7.1 fold.

B3: Compound of Example 348 (ligand)
chain 1: GIVEQCCTSICSLEQLENYCNK
chain 2: FVNQHLCGSHLVEALYLVCGERGFHYPK
modifications: diboron group of building block of Example 39 on amino group(s); site(s) shown only in the drawing
In the case of B3, the “HIR affinity relative HI (%), 1.5% HSA” value in assay [5] was 0.2%. The “HIR glucose factor, 20 mM glucose 1.5% HSA” value in assay [6] is 7.3 fold.

B4: Compound of Example 141 (ligand)
chain 1: GIVEQCCTSICSLEQLENYCNK
chain 2: FVNQHLCGSHLVEALYLVCGERGFHYPK
modifications: diboron group from building block of example 2; sites only in drawing
As to B4, the “HIR affinity relative HI (%), 1.5% HSA” value in assay [2] turned out to be 8.6%. Moreover, in assay [3], the “HIR glucose factor, 20 mM glucose 1.5% HSA” value is 2.3 fold.

B5: compound of Example 272: A14E A22K B25H desB27 desB30 human insulin conjugated with building block of example 29 (ligand)
chain 1: GIVEQCCTSICSLEQLENYCNK
chain 2: FVNQHLCGSHLVEALYLVCGERGFHYPK
modifications: not fully specified; diboron group(s) of example 29, sites only in drawing
notes: as for B2
For the molecule B5, the “HIR glucose factor, 20 mM glucose 1.5% HSA” value in assay [4] stood at 12.1 fold. Besides, in assay [7], the “HIR affinity relative HI (%), 1.5% HSA” value was determined as 0.2%.

B6: Compound of Example 152 (ligand)
chain 1: GIVEQCCTSICSLEQLENYCNK
chain 2: FVNQHLCGSHLVEALYLVCGERGFHYPGK
modifications: not fully specified; diboron group from building block of example 15; sites only in drawing
B6: in assay [2], the “HIR affinity relative HI (%), 1.5% HSA” value stood at 4.9%. The “HIR glucose factor, 20 mM glucose 1.5% HSA” value in assay [3] turned out to be 2.9 fold.

B7: Compound of Example 158 (ligand)
chain 1: GIVEQCCTSICSLEQLENYCNK
chain 2: FVNQHLCGSHLVEALYLVCGERGFHYPGK
modifications: not fully specified; diboron group from building block of example 16; sites only in drawing
On to B7, for which the “HIR affinity relative HI (%), 1.5% HSA” value in assay [2] was determined as 2%. For the same molecule, the “HIR glucose factor, 20 mM glucose 1.5% HSA” value in assay [3] turned out to be 9.9 fold.

B8: Compound of Example 154 (ligand)
chain 1: GIVEQCCTSICSLEQLENYCNK
chain 2: FVNQHLCGSHLVEALYLVCGERGFHYPGK
modifications: not fully specified; diboron group from building block of example 19; sites only in drawing
As for B8, the “HIR affinity relative HI (%), 1.5% HSA” value in assay [2] turned out to be 6.1%. Besides, the “HIR glucose factor, 20 mM glucose 1.5% HSA” value in assay [3] is 3.7 fold.

B9: Compound of Example 352 (ligand)
chain 1: GIVEQCCTSICSLEQLENYCNK
chain 2: FVNQHLCGSHLVEALYLVCGERGFHYPK
modifications: diboron group of building block of Example 40 on amino group(s); site(s) shown only in the drawing
Consider B9, for which the “HIR glucose factor, 20 mM glucose 1.5% HSA” value in assay [6] was determined as 5.2 fold.

B10: Compound of Example 139 (ligand)
chain 1: GIVEQCCTSICSLEQLENYCNK
chain 2: FVNQHLCGSHLVEALYLVCGERGFHYPK
modifications: diboron group from building block of example 9; sites only in drawing
Turning to B10, in assay [2], the “HIR affinity relative HI (%), 1.5% HSA” value worked out at 4%. Besides, the “HIR glucose factor, 20 mM glucose 1.5% HSA” value in assay [3] came out at 3.2 fold.

B11: Compound of Example 350 (ligand)
chain 1: GIVEQCCTSICSLEQLENYCNK
chain 2: FVNQHLCGSHLVEALYLVCGERGFHYPK
modifications: diboron group of building block of Example 37 on amino group(s); site(s) shown only in the drawing
Turning to B11, in assay [5], the “HIR affinity relative HI (%), 1.5% HSA” value was 0.1%. For the same molecule, the “HIR glucose factor, 20 mM glucose 1.5% HSA” value in assay [6] was 18.4 fold.

B12: Compound of Example 166 (ligand)
chain 1: GIVEQCCTSICSLEQLENYCNK
chain 2: FVNQHLCGSHLVEALYLVCGERGFHYPK
modifications: not fully specified; diboron group from building block of example 20; sites only in drawing
Turning to B12, in assay [2], the “HIR affinity relative HI (%), 1.5% HSA” value is 2.2%. Further, in assay [3], the “HIR glucose factor, 20 mM glucose 1.5% HSA” value came to 5.9 fold.

B13: Compound of Example 349 (ligand)
chain 1: GIVEQCCTSICSLEQLENYCNK
chain 2: FVNQHLCGSHLVEALYLVCGERGFHYPK
modifications: diboron group of building block of Example 38 on amino group(s); site(s) shown only in the drawing
As for B13, in assay [5], the “HIR affinity relative HI (%), 1.5% HSA” value turned out to be 1%. In addition, in assay [6], the “HIR glucose factor, 20 mM glucose 1.5% HSA” value was determined as 4.7 fold.

B14: Compound of Example 155 (ligand)
chain 1: GIVEQCCTSICSLEQLENYCNK
chain 2: FVNQHLCGSHLVEALYLVCGERGFHYPK
modifications: not fully specified; diboron group from building block of example 19; sites only in drawing
In the case of B14, in assay [2], the “HIR affinity relative HI (%), 1.5% HSA” value stood at 5.3%. In addition, in assay [3], the “HIR glucose factor, 20 mM glucose 1.5% HSA” value is 3 fold.

B15: Compound of Example 149 (ligand)
chain 1: GIVEQCCTSICSLEQLENYCNK
chain 2: FVNQHLCGSHLVEALYLVCGERGFHYPK
modifications: not fully specified; diboron group from building block of example 15; sites only in drawing
B15: the “HIR affinity relative HI (%), 1.5% HSA” value in assay [2] was 6.7%. The “HIR glucose factor, 20 mM glucose 1.5% HSA” value in assay [3] came out at 2.8 fold.

B16: Compound of Example 146 (ligand)
chain 1: GIVEQCCTSICSLEQLENYCNK
chain 2: FVNQHLCGSHLVEALYLVCGERGFHYPK
modifications: not fully specified; diboron group from building block of example 16; sites only in drawing
On to B16, for which, in assay [2], the “HIR affinity relative HI (%), 1.5% HSA” value came to 3.5%. The “HIR glucose factor, 20 mM glucose 1.5% HSA” value in assay [3] was 4.5 fold.
